Reference: patent publication US5458874A, “Method of increasing monocyte chemotaxis with CAP37 and monocyte chemotactic portions thereof” (Emory University, priority 1992, dated 1995)
“Also recorded” adds a separate entry of the source.

Columns and labels:
human monocytes = experiment: Monocyte chemotaxis, modified Boyden chamber technique; type: cell-based; conditions: for Distance migrated in μm: chemoattractant conc. 10^-9 M
Protocol: (§1) Chemotaxis was measured using the modified Boyden chamber technique (Snyderman et al.). The leading front method (Zigmond et al.) was used to assess migration of monocytes and lymphocytes through a 8 μm filter (Millipore Corporation, Bedford, Mass.). PMN chemotaxis was measured using a 3 μm filter (Millipore). The purified CAP37 protein (Example 1) used in chemotaxis assays were endotoxin-free as determined by the Limulus Amoebocyte Lysate Assay (Whittaker Bioproducts, Inc., Walkersville, Md.). The dilutions of CAP37 and N-formyl-methionyl-leucyl-phenylalanine (FMLP) were made in Geys buffer (Gibco) containing 2% endotoxin-free bovine serum albumin (BSA). Geys buffer containing 2% BSA served as the negative control, and a […] solution of FMLP as the positive control.
(§2) The chambers were incubated in a humidified atmosphere (6.2% CO2) for 2 hours when testing monocytes and lymphocytes, and for 30 minutes when testing PMNs. The filters were then removed and processed as previously described (Snyderman et al.). The cells were viewed using oil immersion and the distance the cells had migrated into the filter was determined over five different fields on the same slide (Zigmond et al.). Triplicate assays were performed for each experimental point.
The three peptides were tested for chemotactic activity towards monocytes using the modified Boyden Chamber technique described in Example 2. The monocyte chemotactic activity of each peptide fragment at concentrations ranging from 10^-7 to 10^-13 M was compared with Geys buffer (negative control), FMLP 10^-8 M (positive control) and purified CAP37 10^-9 M (positive control). […] The effect of peptide 1 on monocyte chemotaxis is illustrated in Table 2 while the effect of peptide 3 on monocyte chemotaxis is illustrated in Table 3.

[1] = test system: LPS from S. minnesota wild type; LPS from S. minnesota Re mutant; experiment: ELISA, binding of CAP37 to LPS; conditions: CAP37 at 120 ng/well; LPS 0 to 50 μg/ml
Protocol: The LPS from S. minnesota wild type, S. minnesota Re mutant, Lipid A from S. minnesota R595, and Lipid A from S. typhimurium Re mutant were applied to microtiter wells at concentrations ranging from 0 to 50 μg/ml and incubated overnight. The trays were then incubated with CAP37 at 120 ng/well for 1 hour at 37° C. The next incubation was with a rabbit antiserum against CAP37 (1:400 dilution) and the color development was as previously described (Pereira et al., 1989) and the absorbance was read at 492 nm.

wild type LPS = experiment: Neutralization of LPS activity, limulus amebocyte lysate (LAL) assay, wild type LPS; type: biochemical
Protocol: (§3) Further, the neutralization of LPS activity, as assayed by the limulus amebocyte lysate (LAL) assay, by CAP37 was measured. CAP37 was diluted to the desired concentrations (from 6.2 ng/ml to 500 ng/ml) in geys buffered saline pH 7 (GIBCO). To this wild type LPS (RIBI IMMUNOCHEM) or Re LPS from Salmonella (David Morrison, Kansas Medical Center) was added so that the final concentrations were 0.1, 0.5, 1.0 and 2.0 ng/ml LPS. The tubes were incubated at 37° C. for between 30 to 60 minutes and then assayed in the chromogenic LAL assay, using polymyxin E as a control.
(§4) As discussed in Example 11, peptides can be screened for lipopolysaccharide neutralizing capacity using the LAL assay also. The CAP37 peptide was diluted to the desired concentrations (from 125 ng/ml to 4000 ng/ml) in geys buffered saline pH 7 (GIBCO). To this is added the wild type LPS (RIBI IMMUNOCHEM) or Re LPS from Salmonella (David Morrison, Kansas Medical Center) so that the final concentration is 0.1, 0.5, and 1.0 ng/ml LPS. The tubes were incubated at 37° C. for between 30 to 60 minutes and then assayed in the chromogenic LAL assay.

rabbit monocytes = experiment: Rabbit monocyte chemotaxis; type: cell-based; conditions: 1000 ng/ml (2.7×10^-8 M)
Protocol: Peripheral blood mononuclear cells from adult female rabbits, were separated on a 61% PERCOLL (Pharmacia) gradient (Chambers et al.). This technique separated the mononuclear cells from the RBC and PMNs. No further separation of monocytes from lymphocytes was undertaken with the rabbit blood.
as §1
The chambers were incubated in a humidified atmosphere (6.2% CO2) for 2 hours when testing monocytes and lymphocytes, and for 30 minutes when testing PMNs. […] The cells were viewed using oil immersion and the distance the cells had migrated into the filter was determined over five different fields on the same slide (Zigmond et al.). […]

rabbit PMN = experiment: Rabbit PMN chemotaxis; type: cell-based
Protocol: as §1, §2

monocytes = experiment: Checkerboard assay (chemokinesis); type: cell-based, human
Re LPS from Salmonella = experiment: Neutralization of LPS activity, limulus amebocyte lysate (LAL) assay, Re LPS; type: biochemical
Protocol: as §3, §4

E. coli = conditions: (Shafer, 1986); cited from earlier work
PMN = PMN chemotaxis, modified Boyden chamber technique; type: cell-based, human; conditions: range employed in these experiments
Protocol: as §1, §2

lymphocytes = experiment: Lymphocyte chemotaxis, modified Boyden chamber technique; type: cell-based, human; conditions: range employed in these experiments
Protocol: as §1, §2

Salmonella SH7426 = experiment: Bactericidal assay; type: cell-based
Protocol: An overnight culture of Salmonella typhimurium (or other microorganism of interest, if desired) is set up by inoculating one colony in 5 ml of LB Broth (LB Broth consists of 10 g BACTO tryptone (DIFCO), 5 g BACFO yeast (DIFCO) and 5 g NaCl made up to 1 L with endotoxin free water; add 15 g of BACTO agar (DIFCO) to this broth to make LB agar (autoclave). The culture is incubated at 37° C. with rotation. 100 μl of this overnight culture is then transferred to 5 ml of fresh LB Broth and incubated at 37° C. with rotation for 2 hours. Four ml of this log phase culture is then transferred to a sterile cuvette and the optical density is read at […]. Dilutions of the microorganism are then made in tryptone saline (5 g BAOTO tryptone (DIFCO) and 5 g NaCl made up to 1 L with endotoxin free water, pH 5.5) to give a final concentration of 5×10^3 organisms/ml (an O.D. reading of 0.25 at 520 mm is equivalent to 1×10^8 organisms/ml). The microorganisms are placed at 4° C. until ready to be used.
The stock solutions of peptides are stored at -20° C. at concentrations of 1 mg/ml of endotoxin-free water. The peptide is diluted out in tryptone saline to the desired concentration. 100 μl of the peptide is added to each well of the microtitre plate (Corning) and then 100 μl of the bacterial suspension (well vortexed) is added. Each assay point is set up in triplicate. 100 μl of a control, consisting of bacteria and tryptone saline (T=0) in the absence of peptide is plated out on LB agar plates. The microliter plate is then incubated at 37° C. for 1 hour. At the end of the incubation time, 100 μl of each sample is plated out on LB agar plates. The T=60 control (consisting of bacteria and tryptone saline in the absence of peptide) is plated out last. The plates are incubated overnight, and the number of colony forming units (CFU) are determined.
The % killed is determined as follows: [formula]

B1: CAP37: granule-associated cationic protein (mol. wt. 37,000 daltons) from human PMN, 222 amino acid mature protein (protein)
chain: IVGGRKARPRQFPFLASIQNQGRHFCGGALIHARFVMTAASCFQSQNPGVSTVVLGAYDLRRRERQSRQTFSISSMSENGYDPQQNLNDLMLLQLDREANLTSSVTILPLPLQNATVEAGTRCQVAGWGSQRSGGRLSRFPRFVNVTVTPEDQCRPNNVCTGVLTRRGGICNGDGGTPLVCEGLAHGVASFSLGPCGRGPDFFTRVALFRDWIDGVLNNPGP
Distance migrated in μm (human monocytes; Table 2): 78.4 μm
Distance migrated in μm (human monocytes; Table 3): 73.6 μm
monocyte chemotactic activity (in words) (human monocytes; modified Boyden chamber): as effective as FMLP; also recorded: strong chemotactic properties
binding to LPS (ELISA) [1]: capable of binding Re LPS
neutralization of wild type LPS activity (LAL assay) (wild type LPS): significantly neutralized LPS activity
chemotactic for rabbit monocytes (rabbit monocytes): chemotactic
chemotactic response of rabbit PMN (rabbit PMN): did not show a chemotactic response
chemokinetic effect on monocytes (monocytes): some chemokinetic effect
neutralization of Re LPS activity (LAL assay) (Re LPS from Salmonella): significantly neutralized LPS activity
% survival with CAP 37 (E. coli): 4%
effect on PMN chemotaxis (PMN): did not have any effect
effect on lymphocyte chemotaxis (lymphocytes): did not have any effect
% survival with CAP 37 (Salmonella SH7426): 64.3%
